We go through five compounds from patent publication US20200283482A1, “BICYCLIC PEPTIDE LIGAND PRR-A CONJUGATES AND USES THEREOF” (BicycleRD Limited, priority 2017, published 2020).

The nature of one data set: Plasma stability, dog. It is filed as in vitro ADME. Particulars: pH 7.4. How it is done:
(§1) The pooled frozen mouse, rat, dog, monkey or human plasma is thawed in a water bath at 37° C. prior to experiment. Plasma is centrifuged at 4000 rpm for 5 min and the clots are removed if any. […] For positive controls, 100 μM intermediate solution is prepared by diluting 20 μL of the stock solution with 180 μL 45% MeOH/H2O. […] For compounds I-7 to […]-17, […]-22, and […]-33, at each time point (0, 1, 2, 4, 6 and 24 hr), reactions were stopped by removing the plates from water bath and 200 μL 20 mM NH4OAC mix well first and then adding 800 μL of ice-cold stop solution (200 ng/mL Labetalol, 200 ng/mL Tolbutamide, 500 ng/mL N6-Ben and 40 mM DBAA in 100% Methanol). […] Sample plates were vortexed immediately on a plate shaker at 800 rpm for 10 min and then centrifuged at 4,000 rpm for 10 min. An aliquot of supernatant (200 μL) is transferred from each well before submitting to LC-MS/MS analysis. The percentage of test compound remaining at the individual time points relative to the 0 hour sample is calculated using following equation: Percent Remaining=100×(PAR at appointed incubation time/PAR at T0 time) where PAR is the peak area ratio of analyte versus internal standard (IS).

The next data set is described as follows: Plasma stability, rat. It is filed as in vitro ADME. Particulars: pH 7.4. The procedure: as §1
The nature of a further data set: Plasma stability, cyno. It is filed as in vitro ADME. Particulars: cynomolgus monkey, pH 7.4. The procedure: as §1
Another data set is described as follows: Blood stability, mouse. Conditions: male, CD-1, mouse. Type of data set: in vitro ADME, CD-1 mouse. The procedure: CD-1 mouse blood (n≥2, male, fasted overnight) is collected from animals housed at an internal facility. (EDTA-K2 is used as anticoagulant)
The test compounds and positive control stock solutions are prepared to 10 mM in DMSO or ultrapure water. Control compounds bisacodyl, enalapril and propantheline known to be metabolised by blood are also incubated alongside each batch of test compounds I-7, I-22, I-24, I-25, I-27, and I-29 to I-33. The dosing solutions of test compounds and controls are prepared by diluting the stock solution with 45% MeOH/H2O to achieve 100 uM. Test compound solutions (final incubation concentration=2 μM) are incubated with blood (final DMSO concentration≤1%) at six different time points (0, 1, 2, 4, 6 and 24 hours) in duplicate (n=2). The reaction is terminated by adding 100 uL ultra-pure water, mixing well, then adding 800 uL of 100% methanol containing 200 ng/mL tolbutamide and 200 ng/mL labetalol as internal standards. Samples are then vortexed and centrifuged at 3200×g for 20 minutes. Following centrifugation, the concentration of test compound in the supernatant is determined semi-quantitatively by LC-MS/MS. The percentage of test compound remaining at the individual time points relative to the 0 hour sample is then reported. The percent remaining of test compound after incubation in blood is calculated using following equation: Percent Remaining=100×(PAR at appointed incubation time/PAR at T0 time) where PAR is the peak area ratio of analyte versus internal standard (IS).

The next data set can be described thus: Plasma stability, mouse. Particulars: pH 7.4. Type of data set: in vitro ADME. How it is done: as §1
A short description of the next data set: Plasma stability, human. Type of data set: in vitro ADME. Conditions: pH 7.4. The procedure: as §1
Another data set concerns the target hemopexin domain of MT1 (Homo sapiens, UniProt P50281). Put plainly: Fluorescence polarization binding to MT1-MMP hemopexin domain. Particulars: read-out: apparent Kd. How it is done: Direct Binding Fluorescence Polarization or Anisotropy Assays are performed by titrating a constant concentration of fluorescent tracer (here, the fluoresceinated bicyclic peptide to be studied) with its binding partner (here, the MT1-MMP hemopexin domain). As the concentration of binding partner increases during the titration, the polarization signal changes in proportion to the fraction of bound and unbound material. This allows determination of […] (Kd) quantitatively. Assay data can be fit using standard ligand binding equations.
The titrant (binding partner) concentration is varied from 0.1 nM up to typically 5 μM. The range is chosen such that the maximum change in fluorescent polarization can be observed. Buffers employed are phosphate buffered saline in the presence of 0.01% Tween. Experiments were run in black 384 well low-bind/low volume plates (Corning 3820), and the fluorescent polarization signal was measured using a BMG Pherastar FS plate reader. […]
Here, a preformed complex of PEX with the fluorescent PEX-binding tracer is titrated with free, non-fluoresceinated bicyclic peptide. […] Dissociation of the complex can be measured quantitatively, and the Kd of the competitor (titrant) to the target protein determined. The advantage of the competition method is that the affinities of non-fluoresceinated bicyclic peptides can be determined accurately and rapidly. […]
Background: In fluorescence polarisation assays a small probe gives low polarisation when free and higher when bound to something large.

Data set [1] in a line: Tumor localization after IV injection. Type of data set: in vivo. Particulars: mouse, mice bearing MT1-positive tumor xenografts, in less than 60 minutes, read-out: tumor localization level.

Starred links: 1 amine or outer side, 2 acyl side, 3 side chain; linkers in the order of their positions; H or OH if unused. Positions of bridges follow the written chain, without caps; N, C: chain ends. Non-standard residues stand in square brackets, D forms with d. Residues, ends and D or L forms follow the SMILES beside them. *: point of attachment. X3 = CCOCc1nc2c(NC(=O)OCc3ccc(NC(=O)[C@H](CCCNC(N)=O)NC(=O)[C@@H](NC(=O)Cn4cc(CCC(=O)*)nn4)C(C)C)cc3)nc3ccccc3c2n1CC(C)(C)O; X10 = CCCOc1nc(NC(=O)OCCSSC(C)CCC(=O)*)c2[nH]c(=O)n(Cc3ccc(OCCN(C)C)nc3)c2n1; X2 = CCOCc1nc2c(NC(=O)OCCSCC(=O)*)nc3ccccc3c2n1CC(C)(C)O; 1Nal = N[C@@H](Cc1cccc2ccccc12)C(=O)O; TBMB = c1c(C[*:1])cc(C[*:3])cc1C[*:2]; Tle = CC(C)(C)[C@H](N)C(=O)O; βAla = NCCC(=O)O; Sar = CNCC(=O)O

As for `CCOCc1nc2c(NC(=O)OCc3ccc(NC(=O)[C@H](CCCNC(N)=O)NC(=O)[C@@H](NC(=O)Cn4cc(CCC(=O)NCCC(=O)N(C)CC(=O)N(C)CC(=O)N(C)CC(=O)N(C)CC(=O)N(C)CC(=O)N(C)CC(=O)N(C)CC(=O)N(C)CC(=O)N(C)CC(=O)N(C)CC(=O)N[C@@H](C)C(=O)N[C@H]5CSCc6cc7cc(c6)CSC[C@H](NC(=O)[C@@H](C)NC(=O)[C@H](Cc6cccc8ccccc68)NC(=O)[C@H](CCC(=O)O)NC(=O)[C@H](CC(N)=O)NC(=O)[C@@H](C)NC5=O)C(=O)N[C@@H](CCC(=O)O)C(=O)N[C@@H](CC(=O)O)C(=O)N[C@@H](Cc5ccccc5)C(=O)N[C@@H](Cc5ccc(O)cc5)C(=O)N[C@@H](CC(=O)O)C(=O)N[C@@H](C(C)(C)C)C(=O)N[C@H](C(N)=O)CSC7)nn4)C(C)C)cc3)nc3ccccc3c2n1CC(C)(C)O` [I-22] ({X3-βAla}-[Sar][Sar][Sar][Sar][Sar][Sar][Sar][Sar][Sar][Sar]AC[dA]NE[1Nal][dA]CEDFYD[Tle]C-NH2; linker 12-18-25 via TBMB), the half-life at 2 μM in “Plasma stability, dog” (dog, plasma) is greater than 24 h; in the data set “Plasma stability, rat” (rat, plasma), 2 to 6 h; in “Plasma stability, cyno” (plasma), greater than 24 h; in the data set “Blood stability, mouse” it was less than 2 h; in “Plasma stability, mouse” (mouse, plasma), 2 to 6 h; in “Plasma stability, human” (human, plasma) it was greater than 24 h.
For the compound `C[C@H](NC(=O)CN(C)C(=O)CN(C)C(=O)CN(C)C(=O)CN(C)C(=O)CN(C)C(=O)CN(C)C(=O)CN(C)C(=O)CN(C)C(=O)CN(C)C(=O)CN(C)C(=O)CCN)C(=O)N[C@H]1CSCc2cc3cc(c2)CSC[C@H](NC(=O)[C@@H](C)NC(=O)[C@H](Cc2cccc4ccccc24)NC(=O)[C@H](CCC(=O)O)NC(=O)[C@H](CC(N)=O)NC(=O)[C@@H](C)NC1=O)C(=O)N[C@@H](CCC(=O)O)C(=O)N[C@@H](CC(=O)O)C(=O)N[C@@H](Cc1ccccc1)C(=O)N[C@@H](Cc1ccc(O)cc1)C(=O)N[C@@H](CC(=O)O)C(=O)N[C@@H](C(C)(C)C)C(=O)N[C@H](C(N)=O)CSC3` [N241] (H-[βAla][Sar][Sar][Sar][Sar][Sar][Sar][Sar][Sar][Sar][Sar]AC[dA]NE[1Nal][dA]CEDFYD[Tle]C-NH2; linker 13-19-26 via TBMB), the Kd on hemopexin domain of MT1 is roughly 2 nM.
For `C[C@H](NC(=O)CN(C)C(=O)CN(C)C(=O)CN(C)C(=O)CN(C)C(=O)CN(C)C(=O)CN(C)C(=O)CN(C)C(=O)CN(C)C(=O)CN(C)C(=O)CN(C)C(=O)CCN)C(=O)N[C@H]1CSCc2cc3cc(c2)CSC[C@H](NC(=O)[C@@H](C)NC(=O)[C@H](Cc2cccc4ccccc24)NC(=O)[C@H](CCC(=O)O)NC(=O)[C@H](CC(N)=O)NC(=O)[C@@H](C)NC1=O)C(=O)N[C@@H](CCC(=O)O)C(=O)N[C@@H](CC(=O)O)C(=O)N[C@@H](Cc1ccccc1)C(=O)N[C@@H](Cc1ccc(O)cc1)C(=O)N[C@@H](CC(=O)O)C(=O)N[C@@H](C(C)(C)C)C(=O)N[C@H](C(N)=O)CSC3` [^177Lu-loaded N241, metal not drawn] (H-[βAla][Sar][Sar][Sar][Sar][Sar][Sar][Sar][Sar][Sar][Sar]AC[dA]NE[1Nal][dA]CEDFYD[Tle]C-NH2; linker 13-19-26 via TBMB; N-terminus and C-terminus assumed), the tissue uptake in data set [1] is 15 to 20 %ID/g.
On to `CCOCc1nc2c(NC(=O)OCCSCC(=O)NCCC(=O)N(C)CC(=O)N(C)CC(=O)N(C)CC(=O)N(C)CC(=O)N(C)CC(=O)N(C)CC(=O)N(C)CC(=O)N(C)CC(=O)N(C)CC(=O)N(C)CC(=O)N[C@@H](C)C(=O)N[C@H]3CSCc4cc5cc(c4)CSC[C@H](NC(=O)[C@@H](C)NC(=O)[C@H](Cc4cccc6ccccc46)NC(=O)[C@H](CCC(=O)O)NC(=O)[C@H](CC(N)=O)NC(=O)[C@@H](C)NC3=O)C(=O)N[C@@H](CCC(=O)O)C(=O)N[C@@H](CC(=O)O)C(=O)N[C@@H](Cc3ccccc3)C(=O)N[C@@H](Cc3ccc(O)cc3)C(=O)N[C@@H](CC(=O)O)C(=O)N[C@@H](C(C)(C)C)C(=O)N[C@H](C(N)=O)CSC5)nc3ccccc3c2n1CC(C)(C)O` [I-7] ({X2-βAla}-[Sar][Sar][Sar][Sar][Sar][Sar][Sar][Sar][Sar][Sar]AC[dA]NE[1Nal][dA]CEDFYD[Tle]C-NH2; linker 12-18-25 via TBMB), for which the half-life at 2 μM in “Plasma stability, dog” (dog, plasma) was greater than 24 h; in “Plasma stability, rat” (rat, plasma), 6 to 24 h; in “Plasma stability, cyno” (plasma), greater than 24 h; in the data set “Blood stability, mouse”, less than 2 h; in “Plasma stability, mouse” (mouse, plasma), 6 to 24 h; in “Plasma stability, human” (human, plasma), greater than 24 h.
As for `CCCOc1nc(NC(=O)OCCSSC(C)CCC(=O)NCCC(=O)N(C)CC(=O)N(C)CC(=O)N(C)CC(=O)N(C)CC(=O)N(C)CC(=O)N(C)CC(=O)N(C)CC(=O)N(C)CC(=O)N(C)CC(=O)N(C)CC(=O)N[C@@H](C)C(=O)N[C@H]2CSCc3cc4cc(c3)CSC[C@H](NC(=O)[C@@H](C)NC(=O)[C@H](Cc3cccc5ccccc35)NC(=O)[C@H](CCC(=O)O)NC(=O)[C@H](CC(N)=O)NC(=O)[C@@H](C)NC2=O)C(=O)N[C@@H](CCC(=O)O)C(=O)N[C@@H](CC(=O)O)C(=O)N[C@@H](Cc2ccccc2)C(=O)N[C@@H](Cc2ccc(O)cc2)C(=O)N[C@@H](CC(=O)O)C(=O)N[C@@H](C(C)(C)C)C(=O)N[C@H](C(N)=O)CSC4)c2[nH]c(=O)n(Cc3ccc(OCCN(C)C)nc3)c2n1` (stereo partly shown) [I-17] ({X10-βAla}-[Sar][Sar][Sar][Sar][Sar][Sar][Sar][Sar][Sar][Sar]AC[dA]NE[1Nal][dA]CEDFYD[Tle]C-NH2; linker 12-18-25 via TBMB), the half-life at 2 μM is less than 2 h in the data set “Plasma stability, dog” (dog plasma, 2 μM, 37° C., read-out: T1/2 (dog)); less than 2 h in the data set “Plasma stability, rat” (rat plasma, 2 μM, 37° C., read-out: T1/2 (rat)); less than 2 h in the data set “Plasma stability, cyno” (cyno plasma, 2 μM, 37° C., read-out: T1/2 (cyno)); less than 2 h in the data set “Plasma stability, mouse” (mouse plasma, 2 μM, 37° C., read-out: T1/2 (mouse)); less than 2 h in “Plasma stability, human” (human plasma, 2 μM, 37° C., read-out: T1/2 (human)).
